From patent US20190389961A1 (INNATE PHARMA, published 2019) come the findings set out here.

The target in test [1] is T1, human CD39 (vascular CD39, NTPDase1) expressed at the surface of cells (human, UniProt P49961 1-510).
T1 construct: also called huCD39; CHO-huCD39
T1 sequence: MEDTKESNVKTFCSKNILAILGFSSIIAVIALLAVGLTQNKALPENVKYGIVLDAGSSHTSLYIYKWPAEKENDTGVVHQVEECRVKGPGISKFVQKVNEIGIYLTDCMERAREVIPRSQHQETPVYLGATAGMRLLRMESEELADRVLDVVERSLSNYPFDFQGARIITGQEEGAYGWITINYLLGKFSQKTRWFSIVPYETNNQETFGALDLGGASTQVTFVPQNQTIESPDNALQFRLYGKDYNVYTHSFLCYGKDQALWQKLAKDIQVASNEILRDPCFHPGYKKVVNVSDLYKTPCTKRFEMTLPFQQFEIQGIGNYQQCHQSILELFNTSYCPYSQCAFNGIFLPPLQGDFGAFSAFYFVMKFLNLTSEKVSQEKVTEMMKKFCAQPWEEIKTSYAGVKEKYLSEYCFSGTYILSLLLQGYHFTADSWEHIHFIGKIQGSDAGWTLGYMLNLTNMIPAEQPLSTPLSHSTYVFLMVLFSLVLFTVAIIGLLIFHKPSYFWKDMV
The experiment in a line: flow cytometry titration on CHO-huCD39 cells. On the procedure:
(§1) Cells were incubated with various concentration of unlabeled anti-CD39 antibody from 30 μg/ml to 5×10-⁴ μg/ml, for 30 minutes at 4° C. After washes, cells were incubated with Goat anti-mouse H+L labeled secondary antibody for 30 min at 4° C.

In test [2] the target is T1, human CD39 (vascular CD39, NTPDase1) …. Description: flow cytometry on Hek-293T cells expressing wild-type CD39 (panel WT); unstained (US) median 10,3; antibody concentration not shown. As for the experimental part: (§2) Mutants were transfected in Hek-293T cells, as shown in the table 1, using numbering of SEQ ID NO: 1. […] Mutant 19 includes substitutions at residues R138, M139 and E142.
(§3) In order to define the epitopes of the further anti-CD39 antibodies of Example 5, they were tested for loss of binding to the panel of CD39 mutants as described in Example 1 and Table 1. Mutants were transfected in Hek-293T cells, as shown in the table 1, using numbering of SEQ ID NO: 1.Dose-ranges of test antibodies (10-2.5-0.625-0.1563-0.0391-0.0098-0.0024-0.0006 μg/ml) are tested on the 20 generated mutants by flow cytometry.
(Flow cytometry measures light scatter and fluorescence of single cells or particles in a stream.)

Test [3] has the same target. The experiment in a line: cell-based or functional assay.
For test [4], the target named is T2, soluble recombinant human CD39-M2 extracellular domain protein (human, UniProt P49961 38-478, limits assumed).
T2 sequence: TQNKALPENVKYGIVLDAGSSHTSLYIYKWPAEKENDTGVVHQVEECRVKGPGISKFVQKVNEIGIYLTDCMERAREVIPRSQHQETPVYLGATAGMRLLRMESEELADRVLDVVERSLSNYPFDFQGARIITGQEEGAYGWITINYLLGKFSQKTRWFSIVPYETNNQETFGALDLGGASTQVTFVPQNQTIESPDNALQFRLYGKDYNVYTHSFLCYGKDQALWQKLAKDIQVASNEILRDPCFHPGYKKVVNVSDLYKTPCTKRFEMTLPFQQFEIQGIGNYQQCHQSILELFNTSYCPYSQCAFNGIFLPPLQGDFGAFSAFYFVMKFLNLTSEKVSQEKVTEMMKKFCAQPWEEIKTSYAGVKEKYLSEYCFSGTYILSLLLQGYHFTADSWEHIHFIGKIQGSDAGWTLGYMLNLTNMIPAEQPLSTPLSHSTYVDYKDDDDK
Description: cell-based or functional assay.

Test [5] addresses T1, human CD39 (vascular CD39, NTPDase1) …. Description: flow cytometry on Ramos lymphoma cells, second set of experiments. As for the experimental part: as §1
The target of test [6] is T3, cynomolgus (Macaca fascicularis) CD39 expressed on CHO cells (cynomolgus (Macaca fascicularis), UniProt A0A7N9DGH8 1-510).
T3 construct: whole, on cells; also called CHO-cyCD39; cyCD39
T3 sequence: T1 sequence with V47I, F94Y, V221I, I230T, I329V, K368N, A391S, F489V, T490I
Description: flow cytometry titration on CHO-cyCD39 cells. As for the experimental part: as §1

For another test, the target named is T4, human CD39 mutant 19 (human, UniProt P49961 1-510).
T4 construct: Expressed on Hek-293T cells; also called M19
T4 chain: T1 sequence with R138A, M139A, E142K
Description: flow cytometry on Hek-293T cells expressing CD39 mutant 19 (panel M19). As for the experimental part: as §2, §3

Where a chain is given by its changes, count along the chain named. Names may count otherwise.

B1: antibody I-394 (antibody, V domains shown)
VH: EVQLQQSGPELVKPGASVKMSCKASGYTFTDYNMHWVKQSHGRTLEWIGYIVPLNGGSTFNQKFKGRATLTVNTSSRTAYMELRSLTSEDSAAYYCARGGTRFAYWGQGTLVTVSA
VL: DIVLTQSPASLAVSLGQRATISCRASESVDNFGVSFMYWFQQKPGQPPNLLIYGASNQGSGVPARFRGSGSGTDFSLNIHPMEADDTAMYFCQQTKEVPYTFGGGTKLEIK
notes: Mouse variable regions; Produced in CHO with human IgG1 constant domains carrying L234A/L235E/G237A/A330S/P331S (Kabat EU numbering) and a human Ck constant domain
For orientation: EC50 (read off the curve) means the concentration needed to bring the measured effect to its halfway point. Higher therefore signals a less potent agent. By EC50 is commonly meant the midpoint of the concentration-response curve. High values mean lower potency in that assay, low ones higher potency in that assay. Take B1: the half-maximal effective concentration (EC50 (read off the curve)) in test [1] was around 0.2 µg/mL; in test [6], around 0.4 µg/mL. Moreover, the “Median : Comp-Alexa Fluor 647-A” value in test [2] turned out to be 3720. In addition, in test [3], the “IC50, inhibition of ATPase activity of CD39 on Ramos cells (Cell Titer Glo)” value turned out to be 0.05 µg/mL. Moreover, in test [4], the “IC50, inhibition of ATPase activity of soluble CD39 protein (Cell Titer Glo)” value was 0.003 µg/mL. The same molecule came in with an EC50 in test [5] of 0.19 µg/mL. For the same molecule, the binding result with human CD39 mutant 19 is recorded as “no binding”.
